Measurements: the supplement of paper PMC9112550, “Optimization of the antimicrobial peptide Bac7 by deep mutational scanning” (BMC Biology, 2022)

Test system: Escherichia coli TOP10
Assay: shrunken log2 fold change of peptide-encoding DNA abundance (4.5 h post-induction vs induction); higher = less antimicrobial activity (less host growth inhibition)
Conditions: time post-induction: 4.5 h; library: site-saturation at positions 5, 18, 19, 20
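Also: peptides expressed intracellularly from a pBAD plasmid library in pooled LB shake-flask culture, induced with 0.3% L-arabinose, DNA abundance read by NGS, three biological replicates, DESeq2 with apeglm shrinkage.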

Sequence | shrunken log2 fold change
RRIRPRPPRLPRPRPRPCGWPRP | 0.403
RRIRIRPPRLPRPRPRPSCPPRP | -0.776
RRIRMRPPRLPRPRPRPKHNPRP | 0.131
RRIRVRPPRLPRPRPRPKIDPRP | 0.124
RRIRTRPPRLPRPRPRPYGRPRP | -0.27
RRIRYRPPRLPRPRPRPRANPRP | -0.109
RRIRGRPPRLPRPRPRPNFNPRP | 0.0556
RRIRLRPPRLPRPRPRPLGPPRP | 0.332
RRIRRRPPRLPRPRPRPWNQPRP | 0.0251
RRIRLRPPRLPRPRPRPHVSPRP | 0.00444
RRIRRRPPRLPRPRPRPALKPRP | 0.366
RRIRDRPPRLPRPRPRPEELPRP | 0.00153
RRIRWRPPRLPRPRPRPFKIPRP | -0.358
RRIRVRPPRLPRPRPRPAGYPRP | -0.0144
RRIRSRPPRLPRPRPRPNRCPRP | 0.173
RRIRLRPPRLPRPRPRPEVYPRP | 0.0314
RRIRPRPPRLPRPRPRPMEKPRP | -0.00992
RRIRWRPPRLPRPRPRPDTYPRP | -0.161
RRIRGRPPRLPRPRPRPCLRPRP | 0.459
RRIRSRPPRLPRPRPRPDWTPRP | -0.179
RRIRWRPPRLPRPRPRPNYFPRP | -0.167
RRIRARPPRLPRPRPRPPYVPRP | -0.131
RRIRFRPPRLPRPRPRPSIGPRP | -0.139
RRIRLRPPRLPRPRPRPEAPPRP | 0.462
RRIRSRPPRLPRPRPRPHITPRP | -0.734

Sequence | shrunken log2 fold change
RRIRIRPPRLPRPRPRPGPNPRP | -0.113
RRIRHRPPRLPRPRPRPIDTPRP | -0.291
RRIRARPPRLPRPRPRPKIQPRP | 0.26
RRIRTRPPRLPRPRPRPQYMPRP | -1.01
RRIRTRPPRLPRPRPRPFNLPRP | -0.336
RRIRRRPPRLPRPRPRPMHEPRP | 0.213
RRIRTRPPRLPRPRPRPKIDPRP | -0.0576
RRIRVRPPRLPRPRPRPLIKPRP | -0.206
RRIRVRPPRLPRPRPRPCNHPRP | -0.588
RRIRLRPPRLPRPRPRPSIIPRP | -0.735
RRIRVRPPRLPRPRPRPSIEPRP | -0.255
RRIRNRPPRLPRPRPRPPAAPRP | 0.676
RRIRLRPPRLPRPRPRPVIDPRP | -0.182
RRIRNRPPRLPRPRPRPSVQPRP | -0.0954
RRIRDRPPRLPRPRPRPQGHPRP | -0.0748
RRIRTRPPRLPRPRPRPLTFPRP | -0.203
RRIRQRPPRLPRPRPRPLDKPRP | 2.19
RRIRVRPPRLPRPRPRPCQRPRP | 0.0972
RRIRLRPPRLPRPRPRPFTHPRP | -0.342
RRIRMRPPRLPRPRPRPTHDPRP | 0.81
RRIRPRPPRLPRPRPRPVWCPRP | 0.0172
RRIRTRPPRLPRPRPRPHIVPRP | -0.102
RRIRDRPPRLPRPRPRPVLDPRP | -0.0729
RRIRSRPPRLPRPRPRPSSEPRP | 0.0612
RRIRERPPRLPRPRPRPLPHPRP | -0.438

Sequence | shrunken log2 fold change
RRIRKRPPRLPRPRPRPKRAPRP | 1.04
RRIRERPPRLPRPRPRPVPLPRP | -0.244
RRIRCRPPRLPRPRPRPSTEPRP | -0.174
RRIRYRPPRLPRPRPRPEKCPRP | -0.26
RRIRYRPPRLPRPRPRPGQYPRP | -0.414
RRIRERPPRLPRPRPRPYCGPRP | -0.109
RRIRWRPPRLPRPRPRPLTKPRP | 0.23
RRIRHRPPRLPRPRPRPRVNPRP | 0.106
RRIRHRPPRLPRPRPRPRRYPRP | 0.0129
RRIRDRPPRLPRPRPRPAWIPRP | 0.0906
RRIRSRPPRLPRPRPRPYENPRP | -0.229
RRIRPRPPRLPRPRPRPCPWPRP | 0.889
RRIRTRPPRLPRPRPRPEQHPRP | 0.0492
RRIRFRPPRLPRPRPRPSDTPRP | -0.308
RRIRTRPPRLPRPRPRPAPIPRP | 0.0613
RRIRGRPPRLPRPRPRPCPFPRP | -0.218
RRIRDRPPRLPRPRPRPSNTPRP | -0.75
RRIRQRPPRLPRPRPRPQTNPRP | -0.736
RRIRWRPPRLPRPRPRPEASPRP | 0.551
RRIRKRPPRLPRPRPRPMDMPRP | 0.15
RRIRKRPPRLPRPRPRPDPRPRP | 1.19
RRIRTRPPRLPRPRPRPNIWPRP | 0.682
RRIRNRPPRLPRPRPRPQKQPRP | 0.00917
RRIRCRPPRLPRPRPRPKGEPRP | 0.0643
RRIRQRPPRLPRPRPRPSGCPRP | 0.0869

Sequence | shrunken log2 fold change
RRIRKRPPRLPRPRPRPCSYPRP | -0.0348
RRIRIRPPRLPRPRPRPDDPPRP | -0.0328
RRIRERPPRLPRPRPRPCHKPRP | -0.154
RRIRTRPPRLPRPRPRPPRMPRP | 0.165
RRIRYRPPRLPRPRPRPESTPRP | -0.00514
RRIRYRPPRLPRPRPRPKFQPRP | -0.0557
RRIRGRPPRLPRPRPRPLLQPRP | 0.486
RRIRERPPRLPRPRPRPYMNPRP | -0.602
RRIRIRPPRLPRPRPRPKAMPRP | -0.161
RRIRWRPPRLPRPRPRPQWEPRP | -0.0152
RRIRIRPPRLPRPRPRPFFIPRP | -0.641
RRIRQRPPRLPRPRPRPGLPPRP | 0.242
RRIRPRPPRLPRPRPRPCEFPRP | -0.0795
RRIRYRPPRLPRPRPRPRGKPRP | 0.158
RRIRDRPPRLPRPRPRPKIYPRP | -0.684
RRIRFRPPRLPRPRPRPISLPRP | -0.452
RRIRARPPRLPRPRPRPTAAPRP | 1.05
RRIRSRPPRLPRPRPRPVPVPRP | 0.362
RRIRNRPPRLPRPRPRPRTMPRP | 0.135
RRIRCRPPRLPRPRPRPPAKPRP | 0.741
RRIRGRPPRLPRPRPRPFFYPRP | 0.539
RRIRRRPPRLPRPRPRPNSVPRP | -0.0617
RRIRMRPPRLPRPRPRPWCSPRP | -0.075
RRIRQRPPRLPRPRPRPLNSPRP | -0.0233
RRIRWRPPRLPRPRPRPTQKPRP | 0.482

Sequence | shrunken log2 fold change
RRIRKRPPRLPRPRPRPTFAPRP | 0.673
RRIRQRPPRLPRPRPRPKQCPRP | -0.288
RRIRQRPPRLPRPRPRPKGKPRP | -0.155
RRIRPRPPRLPRPRPRPQNYPRP | -0.395
RRIRMRPPRLPRPRPRPHKGPRP | 0.034
RRIRGRPPRLPRPRPRPTNNPRP | 0.217
RRIRWRPPRLPRPRPRPHIWPRP | -0.131
RRIRMRPPRLPRPRPRPMTDPRP | 0.0744
RRIRFRPPRLPRPRPRPTKLPRP | -0.494
RRIRSRPPRLPRPRPRPQYAPRP | -0.282
RRIRVRPPRLPRPRPRPRHIPRP | -0.508
RRIRVRPPRLPRPRPRPSPGPRP | 0.252
RRIRQRPPRLPRPRPRPSENPRP | -0.0264
RRIRHRPPRLPRPRPRPYAKPRP | -0.0134
RRIRYRPPRLPRPRPRPCLKPRP | -0.0431
RRIRERPPRLPRPRPRPDGVPRP | -0.162
RRIRRRPPRLPRPRPRPKFAPRP | 0.283
RRIRARPPRLPRPRPRPYQYPRP | -0.352
RRIRVRPPRLPRPRPRPFAIPRP | -0.765
RRIRIRPPRLPRPRPRPFKIPRP | -0.144
RRIRKRPPRLPRPRPRPRGTPRP | 0.648
RRIRARPPRLPRPRPRPRMYPRP | 0.0922
RRIRIRPPRLPRPRPRPVLDPRP | 0.0135
RRIRLRPPRLPRPRPRPHTVPRP | -0.267
RRIRARPPRLPRPRPRPLWQPRP | 0.136

Sequence | shrunken log2 fold change
RRIRLRPPRLPRPRPRPRPKPRP | 0.294
RRIRRRPPRLPRPRPRPDYSPRP | -0.263
RRIRSRPPRLPRPRPRPRLCPRP | 0.28
RRIRKRPPRLPRPRPRPFFHPRP | 0.203
RRIRPRPPRLPRPRPRPRAMPRP | 0.292
RRIRTRPPRLPRPRPRPSGQPRP | 0.0245
RRIRHRPPRLPRPRPRPMMLPRP | -0.286
RRIRMRPPRLPRPRPRPTKYPRP | -0.152
RRIRHRPPRLPRPRPRPLPEPRP | 0.126
RRIRPRPPRLPRPRPRPSLVPRP | -0.222
RRIRSRPPRLPRPRPRPYGSPRP | -0.0102
RRIRYRPPRLPRPRPRPYNKPRP | -0.734
RRIRCRPPRLPRPRPRPTQRPRP | 0.514
RRIRERPPRLPRPRPRPMGFPRP | 0.0499
RRIRMRPPRLPRPRPRPIGEPRP | 0.0433
RRIRNRPPRLPRPRPRPNWCPRP | 0.23
RRIRCRPPRLPRPRPRPNIFPRP | -0.432
RRIRKRPPRLPRPRPRPMFWPRP | 0.173
RRIRTRPPRLPRPRPRPVWLPRP | -0.101
RRIRWRPPRLPRPRPRPQYEPRP | 0.0857
RRIRWRPPRLPRPRPRPTGRPRP | 0.536
RRIRLRPPRLPRPRPRPFPMPRP | -0.312
RRIRRRPPRLPRPRPRPKCKPRP | -0.0255
RRIRFRPPRLPRPRPRPKYGPRP | -0.234
RRIRMRPPRLPRPRPRPHCLPRP | -0.0601
